# Source: publication PMC11336063
# Molecular target: N-terminal domain of eIF2α (eIF2α-NTD), amino acids 2–187 (UniProt P05198)
# UniProt P05198, sequence (P05198 2-187): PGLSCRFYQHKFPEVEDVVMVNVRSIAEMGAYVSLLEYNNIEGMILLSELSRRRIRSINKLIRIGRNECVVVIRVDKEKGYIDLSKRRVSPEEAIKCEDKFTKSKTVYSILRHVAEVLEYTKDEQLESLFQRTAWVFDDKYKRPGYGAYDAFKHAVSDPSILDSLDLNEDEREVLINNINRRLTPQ
row,Substance,"eIF2α-S51 phosphorylation of eIF2α-NTD (1 μM) by immunopurified GCN2 variant in the in vitro kinase assay, percent [%]"
1,"human GCN2 P1115L variant, 3xFLAG tagged (from UniProt Q9P2K8 1-1649) (enzyme)",12.9
2,"human GCN2 G1109R variant, 3xFLAG tagged (from UniProt Q9P2K8 1-1649) (enzyme)",27.2
